The values below come from PMC4894967.

This test has as its target ATM/Tel1 kinase from Schizosaccharomyces pombe (S. pombe) (UniProt O74630). The experiment in a line: cryo-EM structure; single-particle cryo-EM of purified ATM/Tel1, 20-50 ug/ml in 20 mM HEPES pH 8.0, 40 mM KOAc, 5 mM MgCl2, 0.1% trehalose, 2 mM DTT, 0.01% NP-40; 8.7 Å; initial model from negative-stain RCT.

For “ATM/Tel1 kinase from Schizosaccharomyces pombe, O74630 1-2812”, the stoichiometry N was 2.

As a reminder, the stoichiometry N is a count of units in the complex or per binding partner.
